B1: POLD4 (parent)
chain: ITDSYPVVKRREGPAGHSKGELAP
B2: MYOZ1 (parent)
chain: FSDSSMDHFQKFLPTVGGQLGTAG

Variants of: B1
Experiment: protein stability index of a GFP-peptide fusion (GPS, HEK-293T) (PSI 1-6); higher = more stable
Details: c terminus: a fixed tail appended
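Also: lentivirally expressed fusions sorted by FACS into six bins by GFP to DsRed ratio, PSI derived from sequencing read proportions per bin multiplied by bin number.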

| Variant | protein stability index |
| --- | --- |
| D3Y | 2.74 |
| D3K | 3.89 |
| D3S | 2.68 |
| D3I | 1.09 |
| D3V | 2 |
| D3W | 1.99 |
| D3N | 2.68 |
| D3F | 3.39 |
| D3L | 2.46 |
| D3C | 1.78 |
| D3M | 3.2 |
| D3H | 2.97 |
| D3G | 4.07 |
| D3T | 4.2 |
| Y5S | 4.91 |
| Y5M | 3.5 |
| Y5C | 3.78 |
| Y5V | 4.23 |
| Y5T | 3.5 |
| Y5L | 4.59 |
| Y5D | 5.56 |
| Y5I | 4.84 |
| Y5Q | 5.68 |
| Y5K | 5.3 |
| Y5N | 4.98 |

| Variant | protein stability index |
| --- | --- |
| Y5H | 5.39 |
| Y5W | 3.08 |
| Y5R | 4.72 |
| Y5E | 5.69 |
| Y5P | 5.13 |
| T2G | 3.61 |
| T2M | 3.78 |
| T2H | 4.41 |
| T2F | 4.27 |
| T2W | 3.37 |
| T2A | 2.43 |
| T2V | 3.36 |
| T2D | 4.35 |
| T2P | 3.71 |
| T2L | 4.98 |
| T2S | 3.69 |
| T2I | 4.58 |
| T2Y | 4.27 |
| S4D | 5.06 |
| S4Q | 3.81 |
| S4E | 4.58 |
| S4H | 2.67 |
| S4I | 3.51 |
| S4N | 4.16 |
| S4R | 3.87 |

| Variant | protein stability index |
| --- | --- |
| S4T | 2.56 |
| S4Y | 2.57 |
| S4P | 4.58 |
| P6G | 4.67 |
| P6H | 5 |
| P6A | 3.48 |
| P6F | 3.52 |
| P6D | 5.12 |
| P6E | 4.33 |
| I1T | 4.79 |
| I1Y | 2.62 |
| I1C | 4.11 |
| I1Q | 4.43 |
| I1A | 4.82 |
| I1H | 3.73 |
| I1M | 2.72 |
| I1F | 1.59 |
| I1G | 4.68 |
| I1R | 4.81 |
| I1D | 5.18 |
| I1P | 3.23 |
| I1S | 5.09 |
| I1V | 4.4 |
| I1L | 3.44 |

Variants of: B2
Experiment: as above
Details: c terminus: a fixed tail appended

| Variant | protein stability index |
| --- | --- |
| Q19Y | 2.04 |
| L20E | 3.51 |
| L20Q | 2.66 |
| L20D | 3.24 |
| L20C | 1.66 |
| L20A | 2.58 |
| L20K | 3.1 |
| L20N | 2.97 |
| L20V | 2.25 |
| L20W | 1.56 |
| L20T | 2.53 |
| L20M | 2.35 |
| L20F | 2.25 |
| L20G | 3.24 |
| L20I | 2.69 |
| L20S | 3.71 |
| L20R | 2.98 |
| L20Y | 2.27 |
| L20H | 2.79 |
| L20P | 3.12 |
| A23F | 2.49 |
| A23D | 2.68 |
| A23N | 2.68 |
| A23Q | 2.62 |

| Variant | protein stability index |
| --- | --- |
| A23K | 2.14 |
| A23E | 2.92 |
| A23I | 1.91 |
| A23G | 2.77 |
| A23Y | 2.19 |
| A23T | 2.59 |
| A23C | 2.08 |
| A23M | 1.63 |
| A23H | 2.3 |
| A23R | 2.95 |
| A23P | 2.22 |
| A23S | 1.83 |
| A23L | 2.01 |
| A23W | 2.01 |
| T22Q | 2.36 |
| T22C | 1.81 |
| T22N | 2.54 |
| T22W | 1.43 |
| T22H | 1.86 |
| T22I | 2.57 |
| T22M | 2.14 |
| T22S | 2.19 |
| T22K | 3.06 |
| T22R | 2.16 |

| Variant | protein stability index |
| --- | --- |
| T22L | 3.17 |
| T22Y | 2.05 |
| T22D | 2.86 |
| T22E | 3.05 |
| T22G | 2.09 |
| T22P | 2.15 |
| T22A | 2.29 |
| T22F | 1.82 |
| G21I | 1.76 |
| G21L | 2.71 |
| G21W | 1.76 |
| G21Y | 1.59 |
| G21C | 1.61 |
| G21Q | 2.04 |
| G21R | 2.25 |
| G21T | 2.13 |
| G21P | 2.54 |
| G21K | 2.32 |
| G21H | 2.14 |
| G21S | 1.69 |
| G21M | 2.28 |
| G21N | 2.98 |
| G21E | 2.35 |
| G21A | 1.87 |

| Variant | protein stability index |
| --- | --- |
| G21V | 1.75 |
| G21D | 2.81 |
| G21F | 1.62 |
| G24R | 2.22 |
| G24E | 2.54 |
| G24I | 1.54 |
| G24L | 2.36 |
| G24S | 1.98 |
| G24N | 2.03 |
| G24V | 2.42 |
| G24Q | 1.98 |
| G24D | 3.09 |
| G24T | 1.89 |
| G24M | 1.92 |
| G24A | 1.71 |
| G24H | 2.33 |
| G24C | 1.95 |
| G24P | 2.25 |
| G24K | 2.16 |
| G24Y | 1.2 |
| G24W | 1.23 |
